The supplement of paper PMC9170038

Test system: MS2 coat protein
Assay: apparent KD of MS2 coat protein; designed switch direction (-1 OFF switch, 1 ON switch): -1; higher = weaker reporter binding
Procedure, shortened: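 On Illumina chips, designed RNA switches with common flanks were made by stalled E. coli RNA polymerase. Titrations with SNAP-549-labelled MS2 coat protein, doubling from 0.7 or 1.5 nM to 3 µM, were done with no input, with 200 uM small-molecule ligand, or with an oligonucleotide input. Apparent KD is the median per design over clusters, from curve fits of normalised cluster fluorescence.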

[1] = Eterna round: R95, input ligand: FMN 200 uM
[2] = Eterna round: R95, input ligand: microRNA oligo, concentration not stated
[3] = Eterna round: R95, input ligand: none
[4] = input ligand: microRNA oligo, concentration not stated

## CAUGCUUCAUAGGAUAUGGAAGACGUACCGUCGCUAGAAGGAUGAACAUGAGGAUCACCCAUGUAAUACAGGGC [Eternabot (L2) Solution 64] (Eterna round: R97, puzzle: Exclusion 6)
Input ligand: FMN 200 uM
  apparent KD of MS2 coat protein: 169 nM
Input ligand: none
  apparent KD of MS2 coat protein: 68.6 nM

## CGCACACAUGAGGAUCACCCAUGUGAGGAUAUCAUGCUUCGUAGUAAACUACGAAGUGUGAGAAGGCACAUGCA [Omei Ex1 D6] (Eterna round: R97, puzzle: Exclusion 1)
Input ligand: FMN 200 uM
  apparent KD of MS2 coat protein: 169 nM
Input ligand: none
  apparent KD of MS2 coat protein: 44.4 nM

## AGUACUAACACGAAAGUGUUAGUACAAUAAGCUUGUGAAACAUGAGGAUCACCCAUGUCCUCAUACGCUCGUCUUAU [salish99_TOv2_r3_055] (puzzle: Sensor v3, turn-off variant 2)
[1]
  apparent KD of MS2 coat protein: 500 nM
[2]
  apparent KD of MS2 coat protein: 789 nM
[3]
  apparent KD of MS2 coat protein: 655 nM

## AAGAGGCGGACAGGAUAUGGGAAAUUGUAAAGACCAGAAGGGUCGGCGAAAAUACAUGAGGAUCACCCAUGUGAAUCAUGACCA [AK ExNG1-7] (Eterna round: R96, puzzle: Exclusion NG 1)
Input ligand: FMN 200 uM
  apparent KD of MS2 coat protein: 89.1 nM
[4]
  apparent KD of MS2 coat protein: 31.6 nM
Input ligand: none
  apparent KD of MS2 coat protein: 42.5 nM

## GUGGUAGGUUUUUCGAGUAACAUGAGGAUCACCCAUGUAUUAGUUGGAUGUAUCAAGCUUUUUGCUCGACUUAUAAA [JR_SV3TOV1_Sub043] (puzzle: Sensor v3, turn-off variant 1)
[1]
  apparent KD of MS2 coat protein: 249 nM
[2]
  apparent KD of MS2 coat protein: 40.6 nM
[3]
  apparent KD of MS2 coat protein: 288 nM

## GUAGAGUAAGGAUAUUGUGAAUAGGAUAGAAUGGUUAGAAGCAAGAAGGUACAUGAGGAUCACCCAUGUAAUGU [Excluse me!!!! 25 - Jieux - Exclusion 4] (puzzle: Exclusion 4)
[2]
  apparent KD of MS2 coat protein: 23.1 nM

## ACAUGAGGAUCACCCAUGUGACCACGAUGGCUGAUGUAGAGACAGGAUAUGUGUGAAUAUCUAUCACAGAAGGGUCUUGACUGG [Deportation 54 - Jieux - Exclusion NG 3] (Eterna round: R96, puzzle: Exclusion NG 3)
Input ligand: FMN 200 uM
  apparent KD of MS2 coat protein: 35.3 nM
[4]
  apparent KD of MS2 coat protein: 25.7 nM
Input ligand: none
  apparent KD of MS2 coat protein: 31.3 nM

## ACAUGACUGCUAGGAUAUAGAUGACAUGAGGAUCACCCAUGUUAUCCCAUGUUGAUGGAAACCGACUAGAAGGAGCAGCAUAUG [Ex NG2 #10] (Eterna round: R96, puzzle: Exclusion NG 2)
Input ligand: FMN 200 uM
  apparent KD of MS2 coat protein: 53.4 nM
[4]
  apparent KD of MS2 coat protein: 24.3 nM
Input ligand: none
  apparent KD of MS2 coat protein: 33 nM

## GUCUUACAUGAGGAUCACCCAUGUGAGGAUAUGAGUGGUGCUGCUAGGUAGUAUAGACUCAGAAGGCGCAUGAU [Malcxlusion 3 - Jieux - Exclusion 1] (Eterna round: R97, puzzle: Exclusion 1)
Input ligand: FMN 200 uM
  apparent KD of MS2 coat protein: 37.7 nM
Input ligand: none
  apparent KD of MS2 coat protein: 22.6 nM

## CAUGGAUGUGAGCCGCAUUACAUGAGGAUCACCCAUGUCAACAAGCUUUUUGCUUGUCUUACGCGGCGGCACCAGAA [Getelexe] (Eterna round: R96, puzzle: Sensor v3, turn-off variant 1)
Input ligand: FMN 200 uM
  apparent KD of MS2 coat protein: 13 nM
[4]
  apparent KD of MS2 coat protein: 6.81 nM
Input ligand: none
  apparent KD of MS2 coat protein: 14.9 nM

## GACCAGGUAGGAUAUGCUGGGUCGGACUUGAGGAUCACCCAAGUGGCCAAAGUGCGUCCCGCAGAAGGGCCGAAAA [Inanorxeti] (Eterna round: R97, puzzle: Exclusion 5)
Input ligand: FMN 200 uM
  apparent KD of MS2 coat protein: 81.6 nM
Input ligand: none
  apparent KD of MS2 coat protein: 827 nM

## UUUUUACAUGAGGAUCACCCAUGUGAGGAUAUGGAGCGCGACCGCGCGGUCGCGUACACCAGAAGGCGCAGGAU [1st #76] (Eterna round: R97, puzzle: Exclusion 1)
Input ligand: FMN 200 uM
  apparent KD of MS2 coat protein: 89.7 nM
Input ligand: none
  apparent KD of MS2 coat protein: 46.6 nM

## GAGGGACAUGAGGAUCACCCAUGUGAGGAUAUGUGAGAAGGAUUGGAGAGUGAGUGGGACAGAAGGCGCAAGGG [JR_Exclu1_Sub085] (puzzle: Exclusion 1)
[1]
  apparent KD of MS2 coat protein: 95.4 nM
[2]
  apparent KD of MS2 coat protein: 59.9 nM
[3]
  apparent KD of MS2 coat protein: 78 nM

## UUUUUAUAUGAAGGAUAUACUUAACAUGAGGAUCACCCAUGUGGUGUUGUGAGUGAGUGAGUUUAGUAGAAGGUCAAGAAUUUU [JMF's solution 34] (Eterna round: R96, puzzle: Exclusion NG 2)
Input ligand: FMN 200 uM
  apparent KD of MS2 coat protein: 521 nM
[4]
  apparent KD of MS2 coat protein: 399 nM
Input ligand: none
  apparent KD of MS2 coat protein: 324 nM

## AUUAUUUCAGGAUAUGCCUUCAAAGACAUGAGGAUCACCCAUGUUUUCAGUGGCAGGAUCGCAGAAGGGAGAUAUU [EX5 C.29] (Eterna round: R97, puzzle: Exclusion 5)
Input ligand: FMN 200 uM
  apparent KD of MS2 coat protein: 15.6 nM
Input ligand: none
  apparent KD of MS2 coat protein: 14.4 nM

## CUAGCGGAUGUAGGAUAUCGGACUGUUUCAGUCUGAGAAGGACAUGAGGAUCACCCAUGUAUUGCUGCGUGAGUAGCACGCUAG [JL ENG1 3.97] (Eterna round: R96, puzzle: Exclusion NG 1)
[4]
  apparent KD of MS2 coat protein: 17.4 nM

## CUCGAGUCAGGAUAUGUUCCGCAUGGCAACAUGCUAUAAGAAUAGAAGGGACAUGAGGAUCACCCAUGUUAACA [Eternabot (Original) Solution 12] (Eterna round: R97, puzzle: Exclusion 4)
Input ligand: FMN 200 uM
  apparent KD of MS2 coat protein: 162 nM
Input ligand: none
  apparent KD of MS2 coat protein: 44.7 nM

## CUCAUGUCAGGAUAUCUACAUUAAAUUGGUAACCAAGCAUGAGAGAAGGGACAUGAGGAUCACCCAUGUAAAAC [Cegeange] (Eterna round: R97, puzzle: Exclusion 4)
Input ligand: FMN 200 uM
  apparent KD of MS2 coat protein: 44 nM
Input ligand: none
  apparent KD of MS2 coat protein: 27.5 nM

## CUGAGCAGACGGAGAUCCAACAUGAGGAUCACCCAUGUCUCAAAAGCUUUUUGCUCAUCUUAUUGUACCUUGGUGCU [JL ViennaUCT Edcesobi mod 2] (puzzle: Sensor v3, turn-off variant 1)
[1]
  apparent KD of MS2 coat protein: 391 nM
[2]
  apparent KD of MS2 coat protein: 17.6 nM
[3]
  apparent KD of MS2 coat protein: 342 nM

## AACGACUGAGGAUAUACAUGAGGAUCACCCAUGUAUUGAAAUACGUGCUUGGUCAACUGUAGAAGGCAGAAUAA [Oresza] (puzzle: Exclusion 3)
[2]
  apparent KD of MS2 coat protein: 15.9 nM

## GCCGAAAGUGUGAGGAUAUACCUAUGGAUACAUAGGUAGAAGGCACAUGAGGAUCACCCAUGUGGGAAAACGGC [Eli bmx4 4.30] (Eterna round: R97, puzzle: Brourd's mod of Exclusion 4)
Input ligand: FMN 200 uM
  apparent KD of MS2 coat protein: 1140 nM
Input ligand: none
  apparent KD of MS2 coat protein: 190 nM

## UUAUAUAGGUAGGAUAUCGAUUUUAAUUAAUUUCGAGAAGGGUCAACAUGAGGAUCACCCAUGUCAGCAUGUAU [LRO-Excl6-05-Rocketman] (Eterna round: R97, puzzle: Exclusion 6)
Input ligand: FMN 200 uM
  apparent KD of MS2 coat protein: 45.6 nM
Input ligand: none
  apparent KD of MS2 coat protein: 51.4 nM

## UCUCGCGGGCAAGGAUAUCCUACAUUGUUCUGGCCCGGGCAUGUUACAUGAGGAUCACCCAUGUGGGAGAAGGUGCGCCAGGGC [Design 35] (Eterna round: R96, puzzle: Exclusion NG 2)
Input ligand: FMN 200 uM
  apparent KD of MS2 coat protein: 29.9 nM
[4]
  apparent KD of MS2 coat protein: 18.9 nM
Input ligand: none
  apparent KD of MS2 coat protein: 30.3 nM

## AUAAUGUAAGGAUAUCAGUCGUUAAUAAUUUAAUAAUCGACUGAGAAGGUACAUGAGGAUCACCCAUGUGAUCA [E4/8-B1] (Eterna round: R97, puzzle: Exclusion 4)
Input ligand: FMN 200 uM
  apparent KD of MS2 coat protein: 350 nM
Input ligand: none
  apparent KD of MS2 coat protein: 930 nM

## AAUUAGCAAGCAAGAUCCCACAUGAGGAUCACCCAUGUGCUCGUCUUAUAAGGUACUGUGACGAGAGUCACGGUACC [Mat - Sensor, turn-off var - Eli Mod - D48] (Eterna round: R97, puzzle: Sensor, turn-off variant 1)
Input ligand: FMN 200 uM
  apparent KD of MS2 coat protein: 51.5 nM
Input ligand: none
  apparent KD of MS2 coat protein: 50.5 nM

## GGAAAGCAAGGAUAUACAAGGAGACGAUGGAAAGUAGAGCGACAUGAGGAUCACCCAUGUAGAAGGUGCGAGAG [JR_Exclu2_Sub038] (puzzle: Exclusion 2)
[1]
  apparent KD of MS2 coat protein: 40.7 nM
[2]
  apparent KD of MS2 coat protein: 39.1 nM
[3]
  apparent KD of MS2 coat protein: 34.8 nM

## AAAUCCCGAGGAUAUACAUGAGGAUCACCCAUGUAAUCAAACAGGGCAAAUUGAUCCGGUAGAAGGCGGACAAU [EX3 A.26] (Eterna round: R97, puzzle: Exclusion 3)
Input ligand: FMN 200 uM
  apparent KD of MS2 coat protein: 26.6 nM
Input ligand: none
  apparent KD of MS2 coat protein: 13.5 nM

## GAGUAGUAAGGAUAUAGUAGGAGGGAGAAGAGAGGAGAGAACUAGAAGGUACAUGAGGAUCACCCAUGUUGAGA [JR_Exclu4_Sub083] (puzzle: Exclusion 4)
[1]
  apparent KD of MS2 coat protein: 18.5 nM
[2]
  apparent KD of MS2 coat protein: 17 nM
[3]
  apparent KD of MS2 coat protein: 20.4 nM

## CUAGUAUAUCAGGAUAUGAUUUUAUAUAGUUGGUCAGAAGGGAUGACAUGAGGAUCACCCAUGUUAAGGAGUGA [JR_Ex6_Sub043] (Eterna round: R97, puzzle: Exclusion 6)
Input ligand: FMN 200 uM
  apparent KD of MS2 coat protein: 143 nM
Input ligand: none
  apparent KD of MS2 coat protein: 118 nM

## ACAAGCUCUGUGGGUGGUGACAUGAGGAUCACCCAUGUUUUGCUCGUCUUGUGCCGGCCGGCCCGCGGCCGGCCGGC [-40.6, -69.5, A 12%] (Eterna round: R97, puzzle: Sensor, turn-off variant 1)
Input ligand: FMN 200 uM
  apparent KD of MS2 coat protein: 718 nM
Input ligand: none
  apparent KD of MS2 coat protein: 885 nM

## AGCCAAGCAGGAUAUGCCCGGAAUAACAUGAGGAUCACCCAUGUGACCGAUUGAUGUUCUGCAGAAGGGCUUGGAA [Erxesoan mod] (Eterna round: R97, puzzle: Exclusion 5)
Input ligand: FMN 200 uM
  apparent KD of MS2 coat protein: 214 nM
Input ligand: none
  apparent KD of MS2 coat protein: 28.8 nM

## AGCUGACGAGGAUAUACAUGAGGAUCACCCAUGUUGGUCAAGCGACUUCGGUCGCAAUGUAGAAGGCGUCAGCU [E3/8-A4] (Eterna round: R97, puzzle: Exclusion 3)
Input ligand: FMN 200 uM
  apparent KD of MS2 coat protein: 263 nM
Input ligand: none
  apparent KD of MS2 coat protein: 430 nM

## UAUAUAUAGUAAGGAUAUGUAAUUAAUUUAUAAACAGAAGGUACUGACAUGAGGAUCACCCAUGUUUUAGUGUGGGCAUGUAGA [JMF's solution 35] (Eterna round: R96, puzzle: Exclusion NG 1)
[4]
  apparent KD of MS2 coat protein: 71.6 nM

## CCUCCACAUGAGGAUCACCCAUGUAAGGAUAUACCACGCUAAGGCAAACAAAAGAACGGUAGAAGGUACCUGGC [Eternabot (Original) Solution 44] (Eterna round: R97, puzzle: Exclusion 1)
Input ligand: FMN 200 uM
  apparent KD of MS2 coat protein: 32.7 nM
Input ligand: none
  apparent KD of MS2 coat protein: 23.5 nM
